In patent publication US20230041661A1 (Bicycle, published 2023):
Numbered stars: 1 amine (or outer) side, 2 acyl side, 3 side chain; on linkers, the order of the positions; unused ones are H or OH. Bridge positions count the residues as written; N and C are the ends. Ends that are not written are not given here. TAST = 1,4,7-tris(vinylsulfonyl)-1,4,7-triazonane scaffold, O=S(=O)(CC[*:1])N1CCN(S(=O)(=O)CC[*:2])CCN(S(=O)(=O)CC[*:3])CC1

Target: T1, Human IL-17A (human, UniProt Q16552 24-155)
T1 construct: also called Interleukin-17; CTLA-8
T1 sequence (looked up): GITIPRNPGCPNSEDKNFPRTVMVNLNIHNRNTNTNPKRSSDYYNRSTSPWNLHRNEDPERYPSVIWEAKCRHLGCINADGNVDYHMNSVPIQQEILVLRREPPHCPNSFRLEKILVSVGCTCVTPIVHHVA
Experiment: fluorescence polarisation competition, 75 nM human IL-17A, 1 nM tracer BCY13196 as competitor, mean of n=3, Cheng Prusoff fit
Protocol: Affinity determination by fluorescence polarization (FP) competition. Bicycles were screened to determine affinity (Ki) in a fluorescence polarisation assay where in competition with a bicycle labelled with fluorescein (referred to as tracer) with a known affinity for IL-17A. Peptides were diluted to an appropriate concentration in assay buffer (PBS+0.01% Tween20, adjusted to pH7.4 using NaOH (1M)) with a maximum of 1% DMSO, then serially diluted 1 in 2 into assay buffer. Into black 384-well low volume plates, […] of diluted peptide was added to the plate followed by […] of IL-17A at a fixed concentration (75 nM IL-17A for tracer BCY13196, 50 nM IL-17A for tracer BCY13351), then […] tracer added to a final concentration of 1 nM. Measurements were conducted on a BMG PHERAstar FS equipped with an “FP 485 520 520” optic module which excites at 485 nm and detects parallel and perpendicular emission at 520 nm. The PHERAstar FS was set at 25° C. with 200 flashes per well and a positioning delay of 0.1 second, with each well measured at 5 to 10 minute intervals for 60 minutes. The gain used for measurements was determined at the point of experiment on a tracer alone well. […]
Selected peptide ligands of the invention were tested in the above mentioned IL-17A human fluorescence polarization (FP) competition assay and the results are shown in Table 1: […]

Ki: 313 nM
B1: BCY13059 (peptide)
peptide: ACPQDLELCTFLFGDCA
modifications: linker 2-9-16 via TAST
notes: Synthetic bicyclic peptide cyclised on TAST
